# Numbering of substitutions follows the chain as printed. In names and notes the source's numbering stands.
# B1: Chimeric HP1/2 (antibody, human IgG1, V domains shown)
# VH: EVQLQQSGAELVKPGASVKLSCTASGFNIKDTYMHWVKQRPEQGLEWIGRIDPASGDTKYDPKFQVKATITADTSSNTAWLQLSSLTSEDTAVYYCADGMWVSTGYALDFWGQGTTVTVSS
# VL: SIVMTQTPKFLLVSAGDRVTITCKASQSVTNDVAWYQQKPGQSPKLLIYYASNRYTGVPDRFTGSGYGTDFTFTISTVQAEDLAVYFCQQDYSSPYTFGGGTKLEIK
# notes: also called chimerized HP1/2 antibody; chimeric mAb
# B2: H1L1 (antibody, V domains shown)
# VH: EVQLVQSGAEVKKPGATVKISCKASGFNIKDTYMHWVQQAPGKGLEWMGRIDPASGDTKYDPKFQVRVTITADTSTDTAYMELSSLRSEDTAVYYCADGMWVSTGYALDFWGQGTLVTVSS
# VL: SIVMTQSPDSLAVSLGERATINCKASQSVTNDVAWYQQKPGQPPKLLIYYASNRYTGVPDRFSGSGSGTDFTLTISSLQAEDVAVYFCQQDYSSPYTFGQGTKVEIK
# notes: also called Design H1 / Design L1
# B3: H1L0 (antibody, V domains shown)
# VH: B2 VH
# VL: B2 VL with S1D, F87Y
# notes: also called Design H1 / Design L0
# B4: H1L2 (antibody, V domains shown)
# VH: B2 VH
# VL: B2 VL with S67Y
# notes: also called Design H1 / Design L2
# B5: H1L3 (antibody, V domains shown)
# VH: B2 VH
# VL: B2 VL with S67Y, L73F, V85T
# notes: also called Design H1 / Design L3
# B6: CN645 (hu5c8 IgG1 N297P, T299K) (antibody)
# heavy: not shown
# light: DIVLTQSPATLSVSPGERATISCRASQRVSSSTYSYMHWYQQKPGQPPKLLIKYASNLESGVPARFSGSGSGTDFTLTISSVEPEDFATYYCQHSWEIPPTFGGGTKLEIKRTVAAPSVFIFPPSDEQLKSGTASVVCLLNNFYPREAKVQWKVDNALQSGNSQESVTEQDSKDSTYSLSSTLTLSKADYEKHKVYACEVTHQGLSSPVTKSFNRGEC
# B7: CN646 (hu5c8 IgG1 N297S, T299K) (antibody)
# heavy: not shown
# light: B6 light
# B8: CN647 (hu5c8 IgG1 N297D, T299K) (antibody)
# heavy: not shown
# light: B6 light
# B9: EAG2390 (hu5c8 IgG1 T299P) (antibody)
# heavy: not shown
# light: B6 light
# B10: EAG2287 (hu5c8 S228P/T299K, IgG4 CH2/IgG1 CH3 chimera, aglycosylated) (antibody)
# heavy: QVQLVQSGAEVVKPGASVKLSCKASGYIFTSYYMYWVKQAPGQGLEWIGEINPSNGDTNFNEKFKSKATLTVDKSASTAYMELSSLRSEDTAVYYCTRSDGRNDMDSWGQGTLVTVSSASTKGPSVFPLAPCSRSTSESTAALGCLVKDYFPEPVTVSWNSGALTSGVHTFPAVLQSSGLYSLSSVVTVPSSSLGTKTYTCNVDHKPSNTKVDKRVESKYGPPCPPCPAPEFLGGPSVFLFPPKPKDTLMISRTPEVTCVVVDVSQEDPEVQFNWYVDGVEVHNAKTKPREEQFNSKYRVVSVLTVLHQDWLNGKEYKCKVSNKGLPSSIEKTISKAKGQPREPQVYTLPPSRDELTKNQVSLTCLVKGFYPSDIAVEWESNGQPENNYKTTPPVLDSDGSFFLYSKLTVDKSRWQQGNVFSCSVMHEALHNHYTQKSLSLSPG
# light: B6 light
# notes: also called pEAG2287; copies: 2 + 2
# B11: EAG2296 (hu5c8 S228P/T299A, IgG4 CH2/IgG1 CH3 chimera, aglycosylated) (antibody)
# heavy: B10 heavy with K297A
# light: B6 light
# notes: also called pEAG2296; copies: 2 + 2
# B12: EAG2412 (hu5c8 S228P/N297Q, IgG4 CH1, IgG4 CH2, IgG1 CH3, aglycosylated) (antibody)
# heavy: QVQLVQSGAEVVKPGASVKLSCKASGYIFTSYYMYWVKQAPGQGLEWIGEINPSNGDTNFNEKFKSKATLTVDKSASTAYMELSSLRSEDTAVYYCTRSDGRNDMDSWGQGTLVTVSSASTKGPSVFPLAPCSRSTSESTAALGCLVKDYFPEPVTVSWNSGALTSGVHTFPAVLQSSGLYSLSSVVTVPSSSLGTKTYTCNVDHKPSNTKVDKRVESKYGPPCPPCPAPEFLGGPSVFLFPPKPKDTLMISRTPEVTCVVVDVSQEDPEVQFNWYVDGVEVHNAKTKPREEQFQSTYRVVSVLTVLHQDWLNGKEYKCKVSNKGLPSSIEKTISKAKGQPREPQVYTLPPSRDELTKNQVSLTCLVKGFYPSDIAVEWESNGQPENNYKTTPPVLDSDGSFFLYSKLTVDKSRWQQGNVFSCSVMHEALHNHYTQKSLSLSP
# light: B6 light
# notes: also called N297Q IgG4-CH2/IgG1-CH3; copies: 2 + 2
# B13: HP1/2 Fab fragment (Fab, V domains shown)
# VH: B2 VH
# VL: SIVMTQSPDSLAVSLGERATINCKASQSVTNDVAWYQQKPGQPPKLLIYYASNRYTGVPDRFSGSGYGTDFTFTISSLQAEDVATYFCQQDYSSPYTFGQGTKVEIKR
# B14: EC300 (hu5c8 IgG4.P S228P, T307P, glycosylated) (antibody)
# heavy: not shown
# light: B6 light
# notes: copies: 2 + 2
# B15: EC326 (hu5c8 IgG4.P S228P, T307P, L309K, D399S, glycosylated) (antibody)
# heavy: B10 heavy with K297T, T305P, L307K, R353Q, D354E, L356M, D397S, K407R, Q417E, P443L
# light: B6 light
# modifications: N-terminal Q largely converted to pyroglutamic acid; N-linked G0F/G1F/G2F glycans (mass spectrometry)
# notes: copies: 2 + 2
# B16: CN578 (hu5c8 IgG1 T299K, aglycosylated) (antibody)
# heavy: not shown
# light: B6 light
# modifications: N-terminal Q largely converted to pyroglutamic acid (mass spectrometry)
# notes: Mass spectrometry assigns HC 1-447, which fits VH (118) + IgG1 CH1 (98) + Fc moiety (231); also called aglycosylated IgG1 A299K
# Target: T1, α4β1 (VLA-4) as used in the competition ELISAs (UniProt P13612 34-970; P05556 21-728)
# Assay: competition ELISA; integrin preincubated with test mAb, then murine HP1/2 as competing reagent
row,Binder,IC50
1,B1,0.00106 µM
2,B2,0.00167 µM
3,B3,0.00187 µM
4,B4,0.0009 µM
5,B5,0.00049 µM

# Target: T2, human C1q (human, UniProt P02745 23-245; P02746 28-253; P02747 29-245)
# T2 construct: Bought protein; also called complement factor C1q; Sigma human C1q (C0660)
# Assay: C1q ELISA
# Method: The C1q binding assay was be performed by coating 96 well Maxisorb ELISA plates (Nalge-Nunc Rochester, N.Y., USA) with 50 μl recombinant soluble human CD40 ligand at 10 ug/ml overnight at 4° C. in PBS. The wells were aspirated and washed three times with wash buffer (PBS, 0.05% Tween 20) and blocked for 1 hour with 200 µl/well of block/diluent buffer (0.1 M Na2HP04, pH 7.0, 1 M NaCl, 0.05% Tween 20, 1% gelatin). The antibodies were diluted in block/diluent buffer with 3-fold dilutions and incubated for 2 hours at room temperature.
# After aspirating and washing as above, 50 pll/well of sheep anti C1q (Serotec AHP033), diluted 3, 560-fold in block/diluent buffer, were added. After incubation for 1 h at room temperature, the wells were aspirated and washed as above. 50 pll/well of donkey anti-sheep IgG HRP conjugate (Jackson ImmunoResearch 713-035-147) diluted to 1:10,000 in block/diluent were then added, and the wells incubated for 1 h at room temperature.
# After aspirating and washing as above, 100 all TMB substrate (420 plM TMB, 0.004% H2O2 in 0.1 M sodium acetate/citric acid buffer, pH 4.9) were added and incubated for 2 min before the reaction was stopped with 100 ul 2 N sulfuric acid. The absorbance was read at 450 nm with a Softmax PRO instrument, and Softmax software was used to determine the relative binding affinity (C value) with a 4-parameter fit.
row,Binder,binding result
1,B6,no binding
2,B7,no binding
3,B8,no binding
4,B9,no binding
5,B10,no binding
6,B11,no binding
7,B12,no binding

# Target: T3, cynomolgus monkey alpha-4 integrin (cynomolgus monkey, UniProt A0A2K5U6S2 34-970)
# T3 construct: also called cynomolgus alpha-4 integrin
# Assay: in vitro binding affinity comparison; method not described
row,Binder,fold weaker affinity than to the human receptor
1,B13,~6 fold

# Target: T4, human alpha-4 integrin (human, UniProt P13612 34-970, limits assumed)
# T4 construct: also called the human receptor
# Assay: as above
row,Binder,fold higher affinity than natalizumab Fab fragment
1,B13,~6 fold

# Target: T1, α4β1 (VLA-4) as used in the competition …
# Assay: competition ELISA; mixture of mouse HP1/2 with test mAb binding to integrin
row,Binder,IC50
1,B1,0.00164 µM
2,B2,0.00455 µM
3,B3,0.00446 µM
4,B4,0.00134 µM

# Target: T5, CD16 (FcγRIIIa V158) (UniProt P08637 17-208)
# T5 construct: V158 allotype as printed
# Assay: solution competition SPR (Biacore); construct titrated into receptor, free receptor read on immobilized IgG1 MAb
# Method: (§1) Binding to Fcγ receptors was analyzed using solution affinity surface plasmon resonance (ref Day E S, Cachero T G, Qian F, Sun Y, Wen D, Pelletier M, Hsu Y M, Whitty A. Selectivity of BAFF/BLyS and APRIL for binding to the TNF family receptors BAFFR/BR3 and BCMA. Biochemistry. 2005 Feb. 15; 44(6):1919-31.) The method utilizes conditions of so-called “mass-transport-limited” binding, in which the initial rate of ligand binding (protein binding to the senor chip) is proportional to the concentration of ligand in solution (ref BIApplications Handbook (1994) Chapter 6: Concentration measurement, pp 6-1-6-10, Pharmacia Biosensor AB). Under these conditions, binding of the soluble analyte (protein flowing over chip surface) to the immobilized protein on the chip is fast compared to the diffusion of the analyte into the dextran matrix on the chip surface. Therefore, the diffusion properties of the analyte and the concentration of analyte in solution flowing over the chip surface determine the rate at which analyte binds to the chip. In this experiment, the concentration of free Fc receptor in solution is determined by the initial rate of binding to a CM5 Biacore chip containing an immobilized IgG1 MAb. Into these Fc receptor solutions were titrated the stability engineered constructs (see Table 10.1 below). […] Initial binding rates were obtained from raw sensorgram data (FIG. 14). […] The results are shown in Table 10.1 and reported as the average of two titrations.
row,Binder,IC50
1,B14,564 µM
2,B15,380 µM

# Target: T6, CD64 (FcγRI) (UniProt P12314 16-288, limits assumed)
# Assay: as above
# Method: as §1
row,Binder,IC50
1,B16,1420 µM
2,B14,11.2 µM
3,B15,7.56 µM

# Target: T5, CD16 (FcγRIIIa V158)
# Assay: solution competition SPR (Biacore)
# Method: as §1
Binder,IC50,binding result
B16,1320 µM,
B10,,no binding
B11,1320 µM,

# Target: T6, CD64 (FcγRI)
# Assay: solution competition SPR (Biacore)
# Method: as §1
row,Binder,IC50
1,B6,4390 µM
2,B7,3160 µM
3,B8,4480 µM
4,B9,392 µM
5,B10,4040 µM

# From patent US20210238289A1 (Biogen, published 2021)
